Experimental data as given in US20110300138A1 (published 2011).
Each block holds one substance with its values, some of them ahead of it.

Assays:
Assay in all cases: cell-based or functional assay
[1] = target: human TSH receptor (full length, wild type) expressed on CHO cells (human) (UniProt P16473)
[2] = target: wild type TSHR expressed in CHO cells (human) (UniProt P16473)
[3] = target: TSHR with Lys250 mutated to Ala (expressed in CHO cells) (human) (UniProt P16473)
[4] = target: wild type TSHR expressed in CHO cells (human) (UniProt P16473); remark: listed apart in the source
[5] = target: human TSHR with Glu251 mutated to Ala expressed in CHO cells (human) (UniProt P16473)
[6] = target: human TSH receptor (full length, wild type) expressed in CHO cells (human) (UniProt P16473)

Cyclic AMP concentration in hypotonic medium; 100 ng/mL rhTSH alone [1]: 37.8 pmol/mL
Cyclic AMP concentration in isotonic medium; 100 ng/mL rhTSH alone [1]: 29.9 pmol/mL
Substance: recombinant human TSH (from UniProt P01215 25-116; P01222 21-138) (ligand)

% inhibition of TSH stimulation; 5B3 10 µg/mL; Experiment 1 [2]: 0.1%
% inhibition of TSH stimulation; 5B3 10 µg/mL; Experiment 2 [2]: 0%
% inhibition of TSH stimulation; 5B3 100 µg/mL; Experiment 1 [2]: 0%
% inhibition of TSH stimulation; 5B3 100 µg/mL; Experiment 2 [2]: 0%
Cyclic AMP produced; 5B3 10 µg/mL + TSH 3 ng/mL; Experiment 1 [2]: 77.8 pmol/mL
Cyclic AMP produced; 5B3 10 µg/mL + TSH 3 ng/mL; Experiment 2 [2]: 90.6 pmol/mL
Cyclic AMP produced; 5B3 100 µg/mL + TSH 3 ng/mL; Experiment 1 [2]: 79.9 pmol/mL
Cyclic AMP produced; 5B3 100 µg/mL + TSH 3 ng/mL; Experiment 2 [2]: 87.5 pmol/mL
% inhibition of TSH stimulation; 5B3 10 µg/mL; Experiment 1 [3]: 0%
% inhibition of TSH stimulation; 5B3 10 µg/mL; Experiment 2 [3]: 14%
% inhibition of TSH stimulation; 5B3 100 µg/mL; Experiment 1 [3]: 0%
% inhibition of TSH stimulation; 5B3 100 µg/mL; Experiment 2 [3]: 1%
Cyclic AMP produced; 5B3 10 µg/mL + TSH 3 ng/mL; Experiment 1 [3]: 67.7 pmol/mL
Cyclic AMP produced; 5B3 10 µg/mL + TSH 3 ng/mL; Experiment 2 [3]: 47.1 pmol/mL
Cyclic AMP produced; 5B3 100 µg/mL + TSH 3 ng/mL; Experiment 1 [3]: 66.1 pmol/mL
Cyclic AMP produced; 5B3 100 µg/mL + TSH 3 ng/mL; Experiment 2 [3]: 54.7 pmol/mL
Mutated/wild type (%) of cyclic AMP produced; 5B3 10 µg/mL + TSH 3 ng/mL; Experiment 1 [3]: 87%
Mutated/wild type (%) of cyclic AMP produced; 5B3 10 µg/mL + TSH 3 ng/mL; Experiment 2 [3]: 52%
Mutated/wild type (%) of cyclic AMP produced; 5B3 100 µg/mL + TSH 3 ng/mL; Experiment 1 [3]: 83%
Mutated/wild type (%) of cyclic AMP produced; 5B3 100 µg/mL + TSH 3 ng/mL; Experiment 2 [3]: 62%
% inhibition of TSH stimulation; 5B3 10 µg/mL [4]: 5%
% inhibition of TSH stimulation; 5B3 100 µg/mL [4]: 11%
Cyclic AMP produced; 5B3 10 µg/mL + TSH 3 ng/mL [4]: 92.9 pmol/mL
Cyclic AMP produced; 5B3 100 µg/mL + TSH 3 ng/mL [4]: 86.3 pmol/mL
% inhibition of TSH stimulation; 5B3 10 µg/mL [5]: 10%
% inhibition of TSH stimulation; 5B3 100 µg/mL [5]: 0%
Cyclic AMP produced; 5B3 10 µg/mL + TSH 3 ng/mL [5]: 68.7 pmol/mL
Cyclic AMP produced; 5B3 100 µg/mL + TSH 3 ng/mL [5]: 76.7 pmol/mL
Mutated/wild type (%) of cyclic AMP produced; 5B3 10 µg/mL + TSH 3 ng/mL [5]: 74%
Mutated/wild type (%) of cyclic AMP produced; 5B3 100 µg/mL + TSH 3 ng/mL [5]: 89%
Substance: 5B3 IgG (human monoclonal antibody to GAD, negative control for K1-70)

Cyclic AMP concentration at 0.1 units/L NIBSC 90/672 [6]: 5 pmol/mL
Cyclic AMP concentration at 0.3 units/L NIBSC 90/672 [6]: 12.5 pmol/mL
Cyclic AMP concentration at 1 unit/L NIBSC 90/672 [6]: 27.4 pmol/mL
Substance: NIBSC reference preparation 90/672 (Thyroid Stimulating Autoantibody reference preparation)
